Fold of Cx46 pulled down against the wild-type GST-Cx46 loop data for one substance are collected here from PMC3760834.

Where only a bound is given, the exact number is not on record here.

This assay has as its target GST-Cx46G143R loop fusion protein (intracellular loop domain of human Cx46 with the cataract mutation G143R) (human). In words: pull-down; GST, GST-Cx46 loop or GST-Cx46G143R loop on glutathione beads incubated with crude membrane proteins of HeLa cells expressing Cx46, rotating platform, 4°C overnight; eluted proteins blotted with anti-Cx46 and anti-GST.

The substance “human connexin 46 (Cx46), wild type (from UniProt Q9Y6H8 1-435) (natural protein)” showed a fold of Cx46 pulled down against the wild-type GST-Cx46 loop above 2 fold.
